Data taken from US5763177, “Systematic evolution of ligands by exponential enrichment: photoselection of nucleic acid ligands and solution selex” (NeXstar Pharmaceuticals, Inc.).

How the values were obtained:
[1] = molecular target: T1, R17 bacteriophage coat protein (Bacteriophage R17, UniProt P69170 P69170:1-129); test: photocrosslinking at 308 nm 5 min, 6.75 nM RNA, 120 nM protein; conditions: tags: purified from R17 phage propagated in E. coli S26; chain copies: 2; hairpin
Method: RNA-7 (SEQ ID NO:4) (FIG. 11) was prepared using methodology as reported in Example 1 using a plasmid instead of a DNA template. The photocrosslinking was performed as described in Example 3. A 4 ml reaction mixture consisting of 6.75 nM RNA and 120 nM R17 coat protein was irradiated, 2 ml at a time, at 308 nm with unfocused emission from a XeCl excimer laser. The laser produced 50 mJ/pulse and was operated at 10 Hz. The reaction proceeded to near quantitative crosslinking, 85–90%, in 5 min of irradiation. After crosslinking, 1 ml of the total reaction mixture was removed; EDTA (80 mM), SDS (0.1%), and CaCl_2 (0.1 mM) were added; the free (unbound) RNA present was purified away; and the protein digested with Proteinase K at 60° C. for 30 min. The RNA bound to residual protein was ethanol precipitated to remove salts and spun to a pellet. The pellet was washed three times with 70% ethanol to remove any residual salts. A reverse transcription reaction was employed to make a complementary DNA copy of the RNA template. A 13-base […] was annealed to the RNA and the reverse transcription reaction was performed under the standard conditions of the manufacturer, Gibco (Gaithersburg, Md.), and was stopped after 1 hr. […] No stop in the 31 nucleotide region of the gel appeared; this established that the reverse transcriptase had read through the position of the crosslink. […]

[2] = molecular target: T1, R17 bacteriophage coat protein; test: filter; value only in figure; TMK buffer 10 mM Mg acetate, 80 mM KCl, 100 mM Tris pH 8.5, 4 C; near-quantitative crosslinking at 325 nm; conditions: tags: purified from R17 phage propagated in E. coli S26; chain copies: 2; label: 32P; hairpin
[3] = molecular target: T1, R17 bacteriophage coat protein; test: filter; value only in figure; TMK buffer 10 mM Mg acetate, 80 mM KCl, 100 mM Tris pH 8.5, 4 C; crosslinks max about 40% at 308 nm; conditions: tags: purified from R17 phage propagated in E. coli S26; chain copies: 2; label: 32P; hairpin
Method: (§1) RNA-protein binding curves for hairpin variants RNA1 (SEQ ID NO:1), RNA-2 (SEQ ID NO:2) and RNA-3 (SEQ ID NO:3) to the bacteriophage R17 coat protein are shown in FIG. 7. The association constants between coat protein and the RNA hairpin variants were determined with a nitrocellulose filter retention assay described by Carey and co-workers (Carey et al. (1983) supra). A constant, low-concentration of ^32p-labeled RNA was mixed with a series of coat protein concentrations between 0.06 nM and 1 µM in 10 mM magnesium acetate, 80 mM KCL, 80 Ag/ml BSA, and 100 mM Tris-HCl (pH 8.5 at 4° C.) (TMK buffer). These were the same solution conditions used in the crosslinking experiments. After incubation at 4° C. for 45–60 min, the mixture was filtered through a nitrocellulose filter and the amount of complex retained on the filter determined by liquid scintillation counting.
^32P-Labeled RNA sequences RNA-1 (SEQ ID NO:1) and RNA-2 (SEQ ID NO:2) (5 nM) and R17 coat protein (120 nM) were each incubated on ice in 100 mM Tris-HCl (pH 8.5 at 4° C.), 80 mM KCl, 10 mM magnesium acetate, […] of BSA for 15–25 min before irradiations. These are conditions under which the RNA is fully bound to the coat protein. […] Crosslinked RNA was separated from uncrosslinked RNA by PAGE, and the yields were determined by autoradiography.

[4] = molecular target: T2, HIV-2 Rev (Human immunodeficiency virus 2, UniProt P04615 P04615:1-100); test: photocrosslinking 325 nm 4 min, 500 nM protein, 20 ug tRNA, 37 C; conditions: hairpin
T2 sequence: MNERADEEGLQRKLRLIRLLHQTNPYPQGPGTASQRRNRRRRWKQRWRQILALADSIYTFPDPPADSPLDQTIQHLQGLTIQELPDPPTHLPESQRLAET
Text: (§2) The sequences are aligned for maximum homology to the 6a sequence (SEQ ID NO:5). Underlines represent potential base pairing as indicted by computer RNA folding algorithms. Dashed underlines represent the 6a ligand "bubble" motif. Sequences flanked by underline represent either loop or bulge regions. Dashes are placed to maximize alignment with 6a. * denotes that two isolates were obtained. +indicates laser independent crosslinking and—denotes the lack of laser independent crosslinking to HIV-1 Rev. […] FIGS. 18 and 19 show the sequence of Trunc2 (SEQ ID NO:58) and Trunc24 (SEQ ID NO:59) and the specificity results. 500 nM protein, 20 µg tRNA, and approximately 1 nM of kinased trunc2 RNA were incubated for 10 min. at 37° C. and irradiated for 4 min at 325 nm. t2-trunc2 RNA irradiated without added protein; t2Rev1/0'-trunc2 RNA, HIV-1 Rev protein and 0 min. of irradiation; t2/Rev1/4'-trunc2 RNA, HIV-1 Rev protein, adn 4 min. of irradiation; t2/Rev1/4'/ PK-trunc2 RNA, HIV1 Rev protein, 4 min. or irradiation, and proteinase K treated as in FIG. 1; t2/Rev2/4'-trunc2 RNA, HIV-2 Rev protein, and 4 min. of irradiation; t2/Tat/ 4'-trunc2 RNA, HIV-1 Tat protein, and 4 min. of irradiation. R-free RNA; XL-crosslinked nucleoprotein complex.

[5] = molecular target: T3, HIV-1 Rev (Human immunodeficiency virus 1, UniProt P04618 P04618:1-116); test: monophasic; laser-dependent crosslinking at 325 nm; conditions: hairpin
T3 sequence (P04618 whole entry, one chain of several): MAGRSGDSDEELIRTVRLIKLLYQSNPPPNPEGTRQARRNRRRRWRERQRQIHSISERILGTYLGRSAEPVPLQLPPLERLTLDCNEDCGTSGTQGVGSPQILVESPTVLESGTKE
Text: as §2

[6] = molecular target: T1, R17 bacteriophage coat protein; test: filter; value only in figure; TMK buffer 10 mM Mg acetate, 80 mM KCl, 100 mM Tris pH 8.5, 4 C; conditions: tags: purified from R17 phage propagated in E. coli S26; chain copies: 2; label: 32P; hairpin
Method: as §1

[7] = molecular target: T3, HIV-1 Rev; test: monophasic; crosslinks with and without laser, also at 50 nM Rev in human nuclear extract (FIG. 20); conditions: hairpin
Method: To test for the ability of trunc24 (SEQ ID NO:59) to discriminate HIV-1 Rev in a complex mixture, trunc24 and 10 µg of human fibroblast nuclear extract together with decreasing amounts of HIV-1 Rev (FIG. 20). At 50 nM Rev and a 1:100 weight ratio of Rev to nuclear extract, it was possible to see a very significant crosslinked product between trunc24 and Rev.

[8] = molecular target: T2, HIV-2 Rev; test: photocrosslinks (data not shown); no laser-independent crosslink (FIG. 19); conditions: hairpin

T1 sequence (P69170 whole entry, one chain of several): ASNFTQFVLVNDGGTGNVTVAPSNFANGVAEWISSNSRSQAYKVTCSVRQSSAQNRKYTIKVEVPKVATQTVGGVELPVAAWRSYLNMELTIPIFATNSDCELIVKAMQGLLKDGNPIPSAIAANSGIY

GAACAUGAGGAUUACCCAUGAAUUCGAGCUCGCCCGGGCUCUAG (ssRNA, 5-iodouracil in place of U) [RNA-7]
binding result [1]: binds

GGGAGCGAGCAAUAGCCGC (ssRNA, 5-iodouracil in place of U) [RNA-2]
binding result [2]: binds

GGGAGCGAGCAAUAGCCGC (ssRNA, 5-bromouracil in place of U) [RNA-1]
binding result [3]: binds

GGGUGUAUGAAACACCACGUGUGUUUCCACUC (ssRNA, 5-iodouracil in place of all U) [trunc2]
binding result [4]: binds | Kd [5]: 0.5 nM

GGGAGCGAGCAAUAGCCGC (ssRNA) [RNA-3]
binding result [6]: binds

GGGGAUUAACAGGCACACCUGUUAACCCU (ssRNA, 5-iodouracil in place of all U) [trunc24]
Kd [7]: 20 nM | binding result [8]: binds
